Tests used:
[1] = Plasmin activity in brain tissue of MPTP/LPS Parkinson's model mice (enzyme substrate kinetic method); type: in vivo, mouse; conditions: MPTP + LPS Parkinson's model mice, 50 mg/kg tail vein single dose, 2 hours, vs vehicle group, P<0.05
Method: Fifteen female mice were taken to weigh before modeling. […] All mice in the model group were intraperitoneally injected with 5 mg/mL MPTP solution at 35 mg/kg/mouse, and the mice in the blank control group were intraperitoneally injected with 7 mL/kg normal saline. The modeling time was set at 9 am every day, and the injections were continued for 5 days. 24 hours after the last MPTP injection, all mice were weighed and injected intraperitoneally with 5 mg/kg LPS solution. […] The plasmin activity in brain tissue homogenate was detected by enzyme substrate kinetic method. […] 85 μL/well of seven different concentrations of standard solution, blank, and sample were added to the ELISA plate in sequence, and then 15 μL of 20 mM S-2251 solution (Chromogenix, 82033239) was added to each well to incubate at 37° C. Starting from 0 min of reaction, the A405 absorbance value was read in a multifunctional microplate reader every 5 min until the reaction time was 90 min. All reactions were fitted with a straight line by time and absorbance, and the slope of the straight line was the reaction rate of the standard/sample (ΔA405/min). Finally, the potency value of the standard substance and ΔA405/min were used to create a standard curve to calculate the potency of the measured samples.

[2] = Plasminogen level (ELISA) and plasmin activity (enzyme substrate method) in brain homogenate of LPS-treated SOD1-G93A mice; type: in vivo, mouse; conditions: LPS 5 mg/kg intratracheal, 50 mg/kg tail vein single dose, 6 hours, vs vehicle group
Method: Eight 22-week-age SOD1-G93A mice were randomly divided into two groups: a vehicle group and a plasminogen group, with 4 mice in each group. 2.5 mg/mL bacterial lipopolysaccharide (LPS) (Beijing Solebow Technology Co., Ltd., L8880) was administered to the mice in the vehicle group and the plasminogen group via intratracheal instillation, with a modeling dose of 5 mg/kg. Four C57 mice of the same age were selected as normal control mice. Administration began 3 days after LPS treatment. […] The mice were killed 6 hours after the single administration, and the brain tissues were obtained. After homogenization, the plasminogen level was detected by ELISA, and the plasmin activity was detected by enzyme substrate method.

[3] = Plasma plasminogen level after tail vein injection in FAD (Alzheimer's model) mice (ELISA); type: in vivo, mouse
Method: Twenty-seven 16-week-age B6SJL-Tg (APPSwFlLon, PSEN1*M146L* L286V) 6799Vas Mmjax (Stock Number: 034840) (FAD mice for short) (breeding mice were purchased from Jackson Laboratory, USA) were randomly divided into three groups: three mice in vehicle control group, 12 mice in 6 mg/kg plasminogen group, and 12 mice in 50 mg/kg plasminogen group. The mice in the vehicle control group were injected with vehicle at 5 ml/kg by tail vein, the mice in the 6 mg/kg plasminogen group were injected with plasminogen (1.2 mg/ml) at 6 mg/kg body weight by tail vein, and the mice in the 50 mg/kg plasminogen group were injected with plasminogen (10 mg/ml) at 6 mg/kg body weight by tail vein. The mice in the vehicle control group were killed 2 hours after administration, and their blood was collected. Three mice in the 6 mg/kg plasminogen group and three mice in the 50 mg/kg plasminogen group were killed 2, 6, 12 and 24 hours after administration, and their blood was collected. After the blood was centrifuged (3500 rpm, 10 min, 4° C.), the supernatant was taken to detect according to the instructions of Human Plasminogen ELISA Kit (manufacturer: AssayMax, catalog number: EP1200-1). The concentration of each sample was calibrated by using human plasminogen working standard as the internal standard. The calibrated concentration was divided by the total protein concentration to calculate the amount of plasminogen per unit of total protein in each sample and perform statistical analysis.

[4] = Spinal cord tissue plasminogen level after tail vein injection in FAD mice (ELISA)
Method: Twenty-seven 16-week-age B6SJL-Tg (APPSwFlLon, PSEN1*M146L* L286V) 6799Vas Mmjax (Stock Number: 034840) (FAD mice for short) (breeding mice were purchased from Jackson Laboratory, USA) were randomly divided into three groups: three mice in vehicle control group, 12 mice in 6 mg/kg plasminogen group, and 12 mice in 50 mg/kg plasminogen group. The mice in the vehicle control group were injected with vehicle at 5 ml/kg by tail vein, the mice in the 6 mg/kg plasminogen group were injected with plasminogen (1.2 mg/ml) at 6 mg/kg body weight by tail vein, and the mice in the 50 mg/kg plasminogen group were injected with plasminogen (10 mg/ml) at 6 mg/kg body weight by tail vein. […] Three mice in the 6 mg/kg plasminogen group and three mice in the 50 mg/kg plasminogen group were killed 2, 6, 12 and 24 hours after administration, and their blood was collected.
Spinal cord tissue was obtained from the mice sacrificed in Example 21, homogenizing and detecting according to the instructions of Human Plasminogen ELISA Kit (manufacturer: AssayMax, catalog number: EP1200-1). The concentration of each sample was calibrated by using human plasminogen working standard as the internal standard. The calibrated concentration was divided by the total protein concentration to calculate the amount of plasminogen per unit of total protein in each sample and perform statistical analysis.

TDP-43 = target: T1, TDP-43 (Homo sapiens, UniProt Q13148); assay: Cleavage of TDP-43 protein in brain homogenate of ALS model (SOD1-G93A) mice (Western blot); type: biochemical; conditions: SOD1-G93A mouse brain homogenate + recombinant TDP-43, 37° C. 3 h, vs vehicle control group
T1 construct: purchased Nanjing GenScript Biotechnology Co., Ltd. C134WHE160-2/P5HF001
T1 sequence (Q13148 whole entry): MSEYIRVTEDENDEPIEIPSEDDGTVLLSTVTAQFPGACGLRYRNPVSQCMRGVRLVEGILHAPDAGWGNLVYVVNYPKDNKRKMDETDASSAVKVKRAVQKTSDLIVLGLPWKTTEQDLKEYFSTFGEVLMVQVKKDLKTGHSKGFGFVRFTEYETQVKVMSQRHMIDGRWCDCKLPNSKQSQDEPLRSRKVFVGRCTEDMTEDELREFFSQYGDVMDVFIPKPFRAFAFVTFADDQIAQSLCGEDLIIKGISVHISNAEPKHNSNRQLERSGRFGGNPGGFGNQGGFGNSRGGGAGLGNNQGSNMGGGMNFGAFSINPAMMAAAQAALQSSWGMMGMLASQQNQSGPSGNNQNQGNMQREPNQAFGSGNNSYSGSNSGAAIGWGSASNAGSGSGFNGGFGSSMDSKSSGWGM
Method: Four B6.Cg-Tg (SOD1-G93A) 1Gur/J transgenic male mice (referred to as SOD1-G93A transgenic mice) were sacrificed, and the whole brain was taken out to weigh. 1×PBS was added at 150 mg tissue/mL PBS (Thermo Fisher, pH 7.4; 10010-031) to homogenize at 4° C. (1 min, 3-4 times). After homogenization, the supernatant, i.e., the brain homogenate was taken out to place in a new EP tube.
Eppendorf (EP) tubes were set as: (1) blank group, (2) blank control group, (3) vehicle control group, and (4) plasminogen group, with 5 parallels in each group. The blank group was added with 21.5 μL of normal saline, 4.6 μL of vehicle solution (10 mM sodium citrate, 2% arginine hydrochloride, 3% mannitol, pH 7.4), and 23.9 μL of mouse brain homogenate; the blank control group was added with 21.5 μL of normal saline, 2.3 μL of plasminogen solution (2 mg/mL), and 23.9 μL of mouse brain homogenate; the vehicle control group was added with 20.5 μL of TDP-43 (Nanjing GenScript Biotechnology Co., Ltd., custom-expressed human TDP-43, C134WHE160-2/P5HF001, 1.05 mg/mL), 4.6 μL of vehicle solution, and 23.9 μL of mouse brain homogenate; the plasminogen group was added with 20.5 μL of TDP-43 (1.05 mg/mL), 2.3 μL of plasminogen solution (2 mg/mL), and 23.9 μL of mouse brain homogenate. After adding the samples of each group, they were incubated at 37° C. for 3 h, and then 50 μL of 0.1% trifluoroacetic acid solution was added to terminate the reaction.
A 12% gel was prepared according to the SDS-PAGE gel preparation instructions. Each group of samples was mixed with 4× loading buffer (TaKaRa, e2139) at a volume ratio of 3:1, heating at 100° C. for 5 min, cooling and centrifuging for 2 min, and then 20 μL was taken for sample loading. […] After washing 4 times with TBST, the PVDF membrane was placed on a clean imaging plate, Immobilon Western HRP Substrate (MILLIPORE, WBKLS0100) was added for color development, and the membrane was photographed under a biomolecular imager, then performing quantitative analysis by using Image J.

[5] = Brain tissue plasminogen level after tail vein injection in FAD mice (ELISA)
[6] = tail vein injection of 50 mg/kg
[7] = 6 mg/kg plasminogen group, 2 hours
[8] = 6 mg/kg plasminogen group, 6 hours
[9] = 50 mg/kg plasminogen group, 2 hours
[10] = 50 mg/kg plasminogen group, 6 hours
[11] = 50 mg/kg plasminogen group, 12 hours

B1: plasminogen: human plasminogen purified from human donor plasma, in which human Lys-plasminogen and Glu-plasminogen are >98% (protein)
chain: KVYLSECKTGNGKNYRGTMSKTKNGITCQKWSSTSPHRPRFSPATHPSEGLEENYCRNPDNDPQGPWCYTTDPEKRYDYCDILECEEECMHCSGENYDGKISKTMSGLECQAWDSQSPHAHGYIPSKFPNKNLKKNYCRNPDRELRPWCFTTDPNKRWELCDIPRCTTPPPSSGPTYQCLKGTGENYRGNVAVTVSGHTCQHWSAQTPHTHNRTPENFPCKNLDENYCRNPDGKRAPWCHTTNSQVRWEYCKIPSCDSSPVSTEQLAPTAPPELTPVVQDCYHGDGQSYRGTSSTTTTGKKCQSWSSMTPHRHQKTPENYPNAGLTMNYCRNPDADKGPWCFTTDPSVRWEYCNLKKCSGTEASVVAPPPVVLLPDVETPSEEDCMFGNGKGYRGKRATTVTGTPCQDWAAQEPHRHSIFTPETNPRAGLEKNYCRNPDGDVGGPWCYTTNPRKLYDYCDVPQCAAPSFDCGKPQVEPKKCPGRVVGGCVAHPHSWPWQVSLRTRFGMHFCGGTLISPEWVLTAAHCLEKSPRPSSYKVILGAHQEVNLEPHVQEIEVSRLFLEPTRKDIALLKLSSPAVITDKVIPACLPSPNYVVADRTECFITGWGETQGTFGAGLLKEAQLPVIENKVCNRYEFLNGRVQSTELCAGHLAGGTDSCQGDSGGPLVCFEKDKYILQGVTSWGLGCARPNKPGVYVRVSRFVTWIEGVMRNN
[1]
  level of plasmin activity in the brain tissue: significantly higher
[2]
  plasmin activity in brain tissue homogenate: significantly higher
  plasminogen level in brain tissue homogenate: significantly higher
[3]; tail vein
  plasma plasminogen level, 50 mg/kg group compared with 6 mg/kg group: significantly higher
[3]; tail vein 50 mg/kg and 6 mg/kg
  time within which plasminogen is almost completely metabolized (plasma): 12 to 24 h
[3]; tail vein injection of 6 mg/kg
  plasma plasminogen level: increase significantly
[3]; [6]
  plasma plasminogen level: increase significantly
[4]; [7]
  ratio of plasminogen in spinal cord tissue to plasminogen in blood: 0.93%
[4]; [8]
  ratio of plasminogen in spinal cord tissue to plasminogen in blood: 1.62%
[4]; [9]
  ratio of plasminogen in spinal cord tissue to plasminogen in blood: 0.33%
[4]; [10]
  ratio of plasminogen in spinal cord tissue to plasminogen in blood: 0.40%
[4]; [11]
  ratio of plasminogen in spinal cord tissue to plasminogen in blood: 1.56%
[4]; tail vein
  plasminogen level in spinal cord tissue, 50 mg/kg group compared with 6 mg/kg group: significantly higher
[4]; tail vein 50 mg/kg and 6 mg/kg
  time within which plasminogen is almost completely metabolized (spinal cord tissue): 12 to 24 h
[4]; tail vein injection of 6 mg/kg, 6 mg/kg
  plasminogen level in spinal cord tissue: increases significantly
[4]; tail vein injection of 50 mg/kg, 50 mg/kg
  plasminogen level in spinal cord tissue: increases significantly
TDP-43
  amount of TDP-43 monomer: significantly lower
  amount of high molecular weight TDP-43 protein (HMW): significantly lower
  amount of low molecular weight TDP-43 fragment (LMW): significantly lower
[5]; [7]
  ratio of plasminogen in brain tissue to plasminogen in blood: 3.59%
[5]; [8]
  ratio of plasminogen in brain tissue to plasminogen in blood: 4.23%
[5]; [9]
  ratio of plasminogen in brain tissue to plasminogen in blood: 2.49%
[5]; [10]
  ratio of plasminogen in brain tissue to plasminogen in blood: 2.31%
[5]; [11]
  ratio of plasminogen in brain tissue to plasminogen in blood: 3.32%
[5]; tail vein
  plasminogen level in brain tissue, 50 mg/kg group compared with 6 mg/kg group: significantly higher
[5]; tail vein 50 mg/kg and 6 mg/kg
  time within which plasminogen is almost completely metabolized (brain tissue): 12 to 24 h
[5]; tail vein injection of 6 mg/kg
  plasminogen level in brain tissue: increase significantly
[5]; [6]
  plasminogen level in brain tissue: increase significantly
